Test [1] addresses human OX40 on the cell surface (activated human T cells; Jurkat-OX40-NF-kB-Luc cells overexpressing human OX40) (human) (UniProt P43489). The experiment in a line: cell-based or functional assay.
In test [2] the target is recombinant OX40-Fc protein (R & D, Cat 3388-OX) (human) (UniProt P43489). The test is described as follows: blocking ELISA: plate-coated OX40-Fc, serially diluted antibody, then OX40L at 50 ng/ml, bound OX40L detected.

Here are results for one molecule from patent US20230242657A1.

Chain of recombinant OX40-Fc protein (R & D, Cat 3388-OX) (human) (P43489 29-214): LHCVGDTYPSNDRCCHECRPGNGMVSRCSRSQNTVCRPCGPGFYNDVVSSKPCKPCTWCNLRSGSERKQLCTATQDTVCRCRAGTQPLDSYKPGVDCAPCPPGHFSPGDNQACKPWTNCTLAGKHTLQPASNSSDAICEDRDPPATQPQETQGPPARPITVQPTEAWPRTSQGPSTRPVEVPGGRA
Chain of human OX40 on the cell surface (activated human T cells; Jurkat-OX40-NF-kB-Luc cells overexpressing human OX40) (human) (P43489 29-277): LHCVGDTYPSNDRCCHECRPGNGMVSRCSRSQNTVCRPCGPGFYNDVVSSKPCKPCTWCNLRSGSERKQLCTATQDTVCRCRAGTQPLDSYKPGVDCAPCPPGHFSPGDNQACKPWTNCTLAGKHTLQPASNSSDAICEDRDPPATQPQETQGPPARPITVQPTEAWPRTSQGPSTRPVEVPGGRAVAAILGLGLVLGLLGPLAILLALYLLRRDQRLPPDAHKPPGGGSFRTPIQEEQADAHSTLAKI

B1: GBR830 (reference OX40 antagonist antibody) (antibody, INN chains, looked up, V domains shown)
VH: QVTLKESGPALVKPTQTLTLTCSFSGFSLSTSGMGVGWIRQPPGKALEWIAHIWWDDDKYYNTALKTRLTISKDTSKNQVVLTMTNMDPVDTATYYCARIDWDGFAYWGQGTLVTVSS
VL: EIVLTQSPATLSLSPGERATLSCRASSSVSYMHWYQQKPGQAPRPWIYATSNRATGIPARFSGSGSGTDYTLTISSLEPEDFAVYYCQQWSSNPWTFGQGTKVEIK
B1 returned an IC50 of blocking the OX40L-mediated T cell activation (IFNy secretion) in test [1] of 1.1 nM. Also, in test [2], the IC50 came to 0.3 nM and the maximum inhibition rate was found to be 50%.
